T1: HMGB-1 (Homo sapiens, UniProt P09429)
T1 sequence (P09429 1-215): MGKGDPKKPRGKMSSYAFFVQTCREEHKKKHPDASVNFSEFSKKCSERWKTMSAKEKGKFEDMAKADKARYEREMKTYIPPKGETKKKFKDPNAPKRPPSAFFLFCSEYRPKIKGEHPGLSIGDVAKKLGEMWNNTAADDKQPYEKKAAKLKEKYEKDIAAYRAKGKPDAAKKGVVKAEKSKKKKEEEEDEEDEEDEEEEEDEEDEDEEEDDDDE


Experiments:
HMGB-1 = biological target: T1, HMGB-1; experiment: Antibody HMG1 binding competition via BIAcore analysis
Method: Antibody HMG1 Binding Competition via BIAcore Analysis: All experiments were performed on a BIAcore 3000 instrument (BIAcore, Inc., Piscataway, N.J.). The HMGB-1 protein was immobilized onto a CM5 sensor using a standard amine coupling chemistry protocol, as described in the BIAcore Handbook (BIAcore, Inc., Piscataway, N.J.). Briefly, the CM5 surface subject to the NHS/EDC activation. After activation a HMGB-1 was injected over the surface at a concentration of 100 nM or 200 nM (in 10 mM NaOAc, pH4) to a surface density of between 1100 and 1200 RU's. Following this, unreacted sites on the sensor chip surface were “capped” with an injection of 1M ethanolamine. For reference purposes, a blank flow cell was also prepared, utilizing this same procedure that was used to immobilize HMGB-1, but without any ligand.
MAbs G2, G4, G9, S6 and Synagis were prepared at 1 uM and 2 uM. All mAb solutions were prepared in HBS-EP buffer (BIAcore, Inc., Piscataway, N.J.). Each cycle started with a 100 μL injection of the first mAb, injected at 1 μM, followed by a second 100 μL injection of a 1:1 mixture of two, 2× concentration mAbs, such that the final concentration of each component mAb in the mixture is equivalent to the first injection. […]
Once the entire set had been collected, the maximum RU responses for each mAb after each injection cycle was recorded. […]

[1] = tested on: active CIA mouse model of arthritis; experiment: Active collagen-induced arthritis (CIA) mouse model; format: in vivo; settings: percent protection, isotype control subtracted
Method: Induction of Active Collagen Induced Arthritis (CIA) in Mice: Six-eight week old male DBA/1J mice (Jackson Labs, Bar Harbor, Me.) were used. On day 0, isoflurane anesthetized animals were given an intradermal injection, at base of tail, of 200 μg bovine Type II collagen (CII) dissolved in 50 μl 0.1 N acetic acid and emulsified with an equal volume of complete Freund's adjuvant (Chondrex, Redmond, Wash.). Three weeks later on day 21 they were given a second similar intradermal injection of 100 μg of CII dissolved in 25 μl 0.1N acetic acid and emulsified with an equal volume of incomplete Freund's adjuvant (Difco, Detroit, Mich.).
Monitoring Disease in Mice: Beginning at day 14 all animals were observed daily to assess the status of the disease in their paws, which was done by assigning a qualitative clinical score to each of the paws. Every day, each animal has its 4 paws scored according to its state of clinical disease. The scoring is done by two observers, with at least one blinded. In addition, each mouse is weighed, to follow body weight changes, at the same time the paws are scored.
The grading scale for the 4 lateral digits of each paw are graded as involved or not involved, i.e., 1 or 0. For example, a maximally involved left rear paw would be scored: ankle=3, midfoot=3, digits=4 (clinical score=10 units) We would repeat this for each paw and sum the scores. […]

| Molecule | binding sites on HMGB1 by BIAcore competition (HMGB-1) | in vivo CIA active [1] [%] |
| --- | --- | --- |
| G9: human anti-HMG1 antibody; VL/VH aa SEQ ID NO: 34/36 (antibody, listed as Homo sapiens, V domains shown) VH: EVQLLESGGGLVQPGGSLRLSCAASGFTFSSYDMFWVRQAPGKGLEWVSRISPSGGYTYYADSVKGRFTISRDNSKNTLYLQMNSLRAEDTAVYYCARLRYFDSRGYAFDIWGQGTMVTVSS VL: AQDIQMTQSPGTLSLSPGERATLSCRASQSVRSSYLAWYQQKPGQAPRLLIYGASTRATGIPDRFSGSGSGTDFTLTISRLEPEDFAVYYCQQYGTSRWTFGQGTKVEIK | bind to either the same site or sites that are highly related perhaps overlapping |  |
| E11: human anti-HMG1 antibody, recognizes HMG1 A-Box; VL/VH aa SEQ ID NO: 24/26 (antibody, listed as Homo sapiens, V domains shown) VH: EVQLLESGGGLVQPGGSLRLSCAASGFTFSRYQMNWVRQAPGKGLEWVSSISPSGGHTHYADSVKGRFTISRDNSKNTLYLQMNSLRAEDTAVYYCAKDGRQGKISTVDHWGQGTLVTVSS VL: AQDIQMTQSPGTLSLSPGERATLSCRASQSVRSNFLAWYQQKPGQAPRLLIYGASRRASGIPDRFSGSGFGADFTLSISRLEPEDFAVYYCQQYGSSPNTFGQGSRVEIK |  | 0 |

Reference: patent US20080311122A1, “Antagonists of Hmgb1 and/or Rage and Methods of Use Thereof” (Medimmune, LLC, priority 2005, published 2008)
